The record followed here is paper PMC5778469.

For this data set, the target named is T1, Cascade (type I-E effector complex) (Escherichia coli, UniProt Q46901;P76632;Q46899;Q46898;Q46897 1-502;1-160;1-363;1-224;1-199).
T1 sequence 1: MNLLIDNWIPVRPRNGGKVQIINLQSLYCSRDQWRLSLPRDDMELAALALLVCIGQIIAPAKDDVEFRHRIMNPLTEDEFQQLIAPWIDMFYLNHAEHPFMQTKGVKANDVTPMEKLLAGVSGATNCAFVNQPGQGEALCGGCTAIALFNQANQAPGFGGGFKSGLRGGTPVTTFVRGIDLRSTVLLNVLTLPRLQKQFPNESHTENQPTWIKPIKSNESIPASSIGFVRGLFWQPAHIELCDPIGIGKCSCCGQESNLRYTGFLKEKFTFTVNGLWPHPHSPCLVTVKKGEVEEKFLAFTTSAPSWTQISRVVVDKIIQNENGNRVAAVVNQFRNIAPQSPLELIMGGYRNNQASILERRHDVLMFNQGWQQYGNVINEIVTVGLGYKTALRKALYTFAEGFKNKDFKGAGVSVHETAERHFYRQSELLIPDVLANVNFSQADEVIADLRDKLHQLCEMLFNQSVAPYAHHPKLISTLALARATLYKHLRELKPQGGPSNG
T1 sequence 2: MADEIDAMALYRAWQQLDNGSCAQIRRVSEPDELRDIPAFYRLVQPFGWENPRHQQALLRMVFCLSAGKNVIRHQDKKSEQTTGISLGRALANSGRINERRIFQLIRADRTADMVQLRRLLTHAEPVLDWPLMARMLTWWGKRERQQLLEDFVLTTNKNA
T1 sequence 3: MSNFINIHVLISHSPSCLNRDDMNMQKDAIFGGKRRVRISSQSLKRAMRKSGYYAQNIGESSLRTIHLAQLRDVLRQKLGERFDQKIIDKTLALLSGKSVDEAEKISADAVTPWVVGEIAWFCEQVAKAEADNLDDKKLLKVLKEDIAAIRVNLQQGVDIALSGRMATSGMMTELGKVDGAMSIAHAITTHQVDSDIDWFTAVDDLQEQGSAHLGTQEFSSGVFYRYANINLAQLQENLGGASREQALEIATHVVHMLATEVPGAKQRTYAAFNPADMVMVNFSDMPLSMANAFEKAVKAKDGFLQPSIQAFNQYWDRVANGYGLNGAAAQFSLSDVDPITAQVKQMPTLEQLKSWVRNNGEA
T1 sequence 4: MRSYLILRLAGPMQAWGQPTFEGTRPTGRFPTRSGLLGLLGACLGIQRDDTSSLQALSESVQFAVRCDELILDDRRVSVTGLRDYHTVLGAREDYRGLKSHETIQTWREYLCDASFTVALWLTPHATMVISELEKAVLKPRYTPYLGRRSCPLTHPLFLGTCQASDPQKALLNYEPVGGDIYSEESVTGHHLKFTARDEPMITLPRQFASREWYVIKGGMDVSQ
T1 sequence 5: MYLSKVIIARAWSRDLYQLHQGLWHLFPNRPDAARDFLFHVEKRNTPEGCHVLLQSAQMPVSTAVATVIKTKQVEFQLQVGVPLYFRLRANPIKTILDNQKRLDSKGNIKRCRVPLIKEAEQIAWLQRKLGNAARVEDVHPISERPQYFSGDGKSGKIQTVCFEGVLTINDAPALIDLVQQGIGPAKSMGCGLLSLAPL
Nature of the data set: EMSA. A general note: Mobility shift assays separate free from complexed probe on a gel.

B1: sp8 target, 5-ghmC, with Cascade crRNA sp8 (dsDNA)
DNA 1: TTCATTTGATGCTCGATGAGTTTTTCTAAAAGCTGACGACCGGGTCTCCGCAAGTGGCACTTTTCCATGACCAAAATCCCTTAACGTGAGTTTTCGTT
DNA 2: AACGAAAACTCACGTTAAGGGATTTTGGTCATGGAAAAGTGCCACTTGCGGAGACCCGGTCGTCAGCTTTTAGAAAAACTCATCGAGCATCAAATGAA
modifications: glucosyl-5-hydroxymethylcytosine replacing C; exact positions not stated
Consider B1, for which the binding result is listed as “no binding”.
